This is an account of results in publication PMC12559223, “Structural basis of apoptosis induction by the mitochondrial voltage-dependent anion channel” (Nature Communications, 2025).

By Kd is commonly meant the constant that tells how readily two partners part at equilibrium.

Residues, ends and D or L forms follow the SMILES beside them.

In test [1] the target is T1, BclxLΔLT (Homo sapiens, UniProt Q07817, DEL45-84).
T1 construct: BclxLΔLT (residues 1–44 and 85–213); inferred from Ni-NTA purification; made in house; host or cells: E. coli BL21 (DE3)
T1 sequence (Q07817 with tags, fused parts or gaps DEL45-84 limits assumed): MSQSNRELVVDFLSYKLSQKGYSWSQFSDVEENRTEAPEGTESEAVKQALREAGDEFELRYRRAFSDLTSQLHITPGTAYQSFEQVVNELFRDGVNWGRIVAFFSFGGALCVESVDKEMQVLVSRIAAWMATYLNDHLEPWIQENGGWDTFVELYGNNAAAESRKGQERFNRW
The experiment in a line: NMR-detected affinity measurement, alanine scanning of VDAC1-N peptides. In kind it is binding. Conditions: NMR CSP titration into 100 µM 2H,15N BclxLΔLT, 20 mM NaPi pH 7.0, 50 mM NaCl; one-site model; mean of individual NMR resonances as probes (n = 3). An excerpt: The resulting chemical shift perturbation was plotted against the peptide concentration to extract KD values for each peptide using a one-site binding model using OriginPro (OriginLab) for data fitting.

Test [2] has as its target human BclxLΔLT (BclxL without the flexible loop and the transmembrane helix) (human) (UniProt Q07817). As to the kind of experiment: ITC; MicroCal PEAQ-ITC, 20 °C; BclxLΔLT in the cell (250 µM for the linear, 50 µM for the stapled peptide), peptide in the syringe (500 µM stapled); 10 mM NaPi pH 7.0, 50 mM NaCl, 0.5 mM EDTA, 1 mM DTT. On the technique in general: Isothermal titration calorimetry measures the heat released or taken up as one component is titrated into another.

Test [3] has as its target human BclxLΔTM (soluble domain of BclxL, transmembrane helix deleted) (human) (UniProt Q07817).
In test [4] the target is T2, human BclxLΔLT (BclxL without the flexible loop and the transmembrane helix), Q07817-1.
T2 chain: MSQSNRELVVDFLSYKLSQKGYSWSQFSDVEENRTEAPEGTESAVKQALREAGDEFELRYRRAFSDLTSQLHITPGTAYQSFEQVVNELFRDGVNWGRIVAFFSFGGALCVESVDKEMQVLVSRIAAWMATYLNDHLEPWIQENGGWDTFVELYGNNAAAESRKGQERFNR
As to the kind of experiment: NMR-detected affinity measurements (alanine scanning). Conditions: chain shown with the change;; parent: est. 0.2 mM; read off a plot.

Test [5] addresses T3, human BclxLΔTM (soluble domain of BclxL, transmembrane helix deleted) (human, UniProt Q07817-1 1-212).
T3 construct: BclxL, human, soluble domain without the transmembrane helix, residues 1-212 (the NMR methods say 1-213); 2H,15N-labelled where it was the observed species in NMR; source: E. coli BL21 (DE3), purified (Ni-NTA, SEC)
The experiment in a line: NMR titration; 100 µM 15N-labelled VDAC1-N peptide with a 5-fold excess of unlabelled BclxLΔTM; 20 mM NaPi pH 7.0, 50 mM NaCl, 303 K, 500 MHz. Conditions: both partners purified.

In test [6] the target is T4, human BclxLΔLT (BclxL without the flexible loop and the transmembrane helix) (human, UniProt Q07817-1 1-212, flexible loop (residues 44–84) deleted).
T4 construct: BclxL, human, residues 1-43 and 85-212 (flexible loop 44-84 and transmembrane helix deleted); the NMR methods say 1-44 and 85-213; Isotope-labelled for NMR; In the crystal it stood fused to VDAC1-N(1-26) on one chain; source: E. coli BL21 (DE3), purified (Ni-NTA, SEC)
As to the kind of experiment: crystal structure; single-chain BclxLΔLT-VDAC1-N construct, crystal from 1.6 M ammonium sulfate, 0.1 M bicine pH 9.0, 292 K; 1.95 Å. The conditions noted are these: both partners purified.

Test [7] concerns the target human BclxLΔTM (soluble domain of BclxL, transmembrane helix deleted) (human) (UniProt Q07817). The source holds these as a separate data set.
The target in test [8] is human BclxLΔLT (BclxL without the flexible loop and the transmembrane helix) (human, UniProt Q07817-1 1-212, flexible loop (residues 44–84) deleted). As to the kind of experiment: NMR.
The target of test [9] is human BclxLΔLT (BclxL without the flexible loop and the transmembrane helix) (human) (UniProt Q07817). As to the kind of experiment: NMR titration; alanine scan: VDAC1-N peptides titrated into 100 µM 2H,15N-BclxLΔLT; 20 mM NaPi pH 7.0, 50 mM NaCl, 0.5 mM EDTA, 5 mM DTT; KD from chemical shift perturbations, one-site binding model.

As for `CC(C)C[C@H](NC(=O)[C@H](CC(=O)O)NC(=O)[C@H](C)NC(=O)[C@@H](N)Cc1ccc(O)cc1)C(=O)NCC(=O)N[C@@H](CCCCN)C(=O)N[C@@H](CO)C(=O)N[C@@H](C)C(=O)N[C@@H](CCCNC(=N)N)C(=O)N[C@@H](CC(=O)O)C(=O)N[C@@H](C)C(=O)N[C@@H](Cc1ccccc1)C(=O)N[C@H](C(=O)N[C@@H](CCCCN)C(=O)NCC(=O)O)[C@@H](C)O` [V17A] (H-YADLGKSARDAFTKG-OH), binding in test [1] was put at a Kd of 713 µM.

`CC(C)C[C@H](NC(=O)[C@H](CC(=O)O)NC(=O)[C@H](C)NC(=O)[C@@H](N)Cc1ccc(O)cc1)C(=O)NCC(=O)N[C@@H](CCCCN)C(=O)N[C@@H](CO)C(=O)N[C@@H](C)C(=O)N[C@@H](CCCNC(=N)N)C(=O)N[C@@H](CC(=O)O)C(=O)N[C@H](C(=O)N[C@@H](Cc1ccccc1)C(=O)N[C@@H](C)C(=O)N[C@@H](CCCCN)C(=O)NCC(=O)O)C(C)C` [T19A] (H-YADLGKSARDVFAKG-OH): the Kd in test [1] came to 201 µM.

Molecule `CC(C)C[C@H](NC(=O)[C@H](CC(=O)O)NC(=O)[C@H](C)NC(=O)[C@@H](N)Cc1ccc(O)cc1)C(=O)N[C@@H](C)C(=O)N[C@@H](CCCCN)C(=O)N[C@@H](CO)C(=O)N[C@@H](C)C(=O)N[C@@H](CCCNC(=N)N)C(=O)N[C@@H](CC(=O)O)C(=O)N[C@H](C(=O)N[C@@H](Cc1ccccc1)C(=O)N[C@H](C(=O)N[C@@H](CCCCN)C(=O)NCC(=O)O)[C@@H](C)O)C(C)C` [G11A] (H-YADLAKSARDVFTKG-OH) displayed a Kd in test [1] of 609 µM.

Regarding `CC(C)C[C@H](NC(=O)[C@H](C)NC(=O)[C@H](C)NC(=O)[C@@H](N)Cc1ccc(O)cc1)C(=O)NCC(=O)N[C@@H](CCCCN)C(=O)N[C@@H](CO)C(=O)N[C@@H](C)C(=O)N[C@@H](CCCNC(=N)N)C(=O)N[C@@H](CC(=O)O)C(=O)N[C@H](C(=O)N[C@@H](Cc1ccccc1)C(=O)N[C@H](C(=O)N[C@@H](CCCCN)C(=O)NCC(=O)O)[C@@H](C)O)C(C)C` [D9A] (H-YAALGKSARDVFTKG-OH), binding in [1] was put at a Kd of 1070 µM.

Molecule “hydrocarbon-stapled VDAC1 peptide encompassing residues 7–21 (stVDAC1-N) (from UniProt P21796 7-21)” showed a Kd in test [2] of 2 µM.

In turn, `CC(C)C[C@H](NC(=O)[C@H](CC(=O)O)NC(=O)[C@H](C)NC(=O)[C@@H](N)Cc1ccc(O)cc1)C(=O)NCC(=O)N[C@@H](CCCCN)C(=O)N[C@@H](CO)C(=O)N[C@@H](C)C(=O)N[C@@H](CCCNC(=N)N)C(=O)N[C@@H](C)C(=O)N[C@H](C(=O)N[C@@H](Cc1ccccc1)C(=O)N[C@H](C(=O)N[C@@H](CCCCN)C(=O)NCC(=O)O)[C@@H](C)O)C(C)C` [D16A] (H-YADLGKSARAVFTKG-OH) showed a Kd in test [1] of 1260 µM.

In [1], `CC(C)C[C@H](NC(=O)[C@H](CC(=O)O)NC(=O)[C@H](C)NC(=O)[C@@H](N)Cc1ccc(O)cc1)C(=O)NCC(=O)N[C@@H](CCCCN)C(=O)N[C@@H](CO)C(=O)N[C@@H](C)C(=O)N[C@@H](CCCNC(=N)N)C(=O)N[C@@H](CC(=O)O)C(=O)N[C@H](C(=O)N[C@@H](Cc1ccccc1)C(=O)N[C@H](C(=O)N[C@@H](CCCCN)C(=O)NCC(=O)O)[C@@H](C)O)C(C)C` [VDAC1 wt] had a Kd of 165 µM.

`CC(C)C[C@H](NC(=O)[C@H](CC(=O)O)NC(=O)[C@H](C)NC(=O)[C@@H](N)Cc1ccc(O)cc1)C(=O)NCC(=O)N[C@@H](CCCCN)C(=O)N[C@@H](C)C(=O)N[C@@H](C)C(=O)N[C@@H](CCCNC(=N)N)C(=O)N[C@@H](CC(=O)O)C(=O)N[C@H](C(=O)N[C@@H](Cc1ccccc1)C(=O)N[C@H](C(=O)N[C@@H](CCCCN)C(=O)NCC(=O)O)[C@@H](C)O)C(C)C` [S13A] (H-YADLGKAARDVFTKG-OH) yielded a dissociation constant Kd in [1] of 408 µM.

Regarding “wild-type VDAC1-N peptide of the alanine scanning set”, the rescue of cBid-activated Bak pore formation inhibited by BclxL (liposome permeabilization), 100 µM peptide in test [3] is 80%.

The molecule `CC(C)C[C@H](NC(=O)[C@H](CC(=O)O)NC(=O)[C@H](C)NC(=O)[C@@H](N)Cc1ccc(O)cc1)C(=O)NCC(=O)N[C@@H](CCCCN)C(=O)N[C@@H](CO)C(=O)N[C@@H](C)C(=O)N[C@@H](CCCNC(=N)N)C(=O)N[C@@H](CC(=O)O)C(=O)N[C@H](C(=O)N[C@@H](C)C(=O)N[C@H](C(=O)N[C@@H](CCCCN)C(=O)NCC(=O)O)[C@@H](C)O)C(C)C` [F18A] (H-YADLGKSARDVATKG-OH) registered a Kd in test [1] of 367 µM.

In the case of `CC(C)[C@H](NC(=O)[C@H](CC(=O)O)NC(=O)[C@H](CCCNC(=N)N)NC(=O)[C@H](C)NC(=O)[C@H](CO)NC(=O)[C@H](CCCCN)NC(=O)CNC(=O)[C@H](C)NC(=O)[C@H](CC(=O)O)NC(=O)[C@H](C)NC(=O)[C@@H](N)Cc1ccc(O)cc1)C(=O)N[C@@H](Cc1ccccc1)C(=O)N[C@H](C(=O)N[C@@H](CCCCN)C(=O)NCC(=O)O)[C@@H](C)O` [L10A] (H-YADAGKSARDVFTKG-OH), the Kd in test [1] was determined as 4030 µM.

In the case of `CC(C)C[C@H](NC(=O)[C@H](CC(=O)O)NC(=O)[C@H](C)NC(=O)[C@H](C)N)C(=O)NCC(=O)N[C@@H](CCCCN)C(=O)N[C@@H](CO)C(=O)N[C@@H](C)C(=O)N[C@@H](CCCNC(=N)N)C(=O)N[C@@H](CC(=O)O)C(=O)N[C@H](C(=O)N[C@@H](Cc1ccccc1)C(=O)N[C@H](C(=O)N[C@@H](CCCCN)C(=O)NCC(=O)O)[C@@H](C)O)C(C)C` [Y7A] (H-AADLGKSARDVFTKG-OH), in [1], the Kd was 446 µM.

With MAVPPTYADLGKSARDVFAKGYGF [wild-type VDAC1-N peptide of the alanine scanning set T19A], the Kd in test [4] came out at 200 µM.

On to MAVPPTYADLAKSARDVFTKGYGF [wild-type VDAC1-N peptide of the alanine scanning set G11A], for which the Kd in test [4] came out at 500 µM.

As for MAVPPTYADLGKAARDVFTKGYGF [wild-type VDAC1-N peptide of the alanine scanning set S13A], in test [4], the Kd worked out at 400 µM.

Consider MAVPPTYAALGKSARDVFTKGYGF [wild-type VDAC1-N peptide of the alanine scanning set D9A], for which the Kd in test [4] was 1000 µM.

B1: VDAC1-N peptide (residues 1–26) (peptide, UniProt P21796 1-26, looked up)
peptide: MAVPPTYADLGKSARDVFTKGYGFGL
notes: VDAC1, human, N-terminal residues 1-26; Isotope-labelled (13C and 15N) for NMR; The same stretch 1-26 stands fused to the C-terminus of BclxLΔLT in m8; the row of the crystal structure uses m6 for that stretch; also called VDAC1-N (1–26); 15N-labeled VDAC1-N; source: E. coli, as His6-GB1-TEV fusion, Ni-NTA, TEV digestion, reverse Ni-NTA; not shown: His6, N-terminal, cleaved; GB1, N-terminal, …
As to B1, the binding result in test [5] and in test [6] was “binds” in each case.

As to MAVPPTYADLGKSARAVFTKGYGF [wild-type VDAC1-N peptide of the alanine scanning set D16A], the Kd in [4] amounted to 1200 µM.

MAVPPTYADLGKSARDVATKGYGF [wild-type VDAC1-N peptide of the alanine scanning set F18A]: in test [4], the Kd is 300 µM.

MAVPPTYADLGKSARDAFTKGYGF [wild-type VDAC1-N peptide of the alanine scanning set V17A]: the Kd in test [4] came to 600 µM.

In the case of NLWAAQRYGRELRRMSDEFEGSFKGL [Bad-BH3 peptide (residues 140–165)], the recovery of cBid-activated Bak pore formation inhibited by BclxL (liposome permeabilization); Bad-BH3 1 to 100 nM in [7] came out at 50 nM.

On to MAVPPTAADLGKSARDVFTKGYGF [wild-type VDAC1-N peptide of the alanine scanning set Y7A], for which the Kd in [4] is 400 µM.

Take MAVPPTYADAGKSARDVFTKGYGF [VDAC1-N L10A peptide]: the Kd in test [4] was 4000 µM; in [8], approximately 9000 µM. Moreover, in test [9], the fold reduction in affinity against wild-type VDAC1-N was 20 fold.
